Literature values, collected in paper PMC3121775.

Target: Harakiri BH3 peptide BH3 (Homo sapiens) (UniProt O00198)
Test: fluorescence

Bcl-xL, sequence (Q07817 whole entry): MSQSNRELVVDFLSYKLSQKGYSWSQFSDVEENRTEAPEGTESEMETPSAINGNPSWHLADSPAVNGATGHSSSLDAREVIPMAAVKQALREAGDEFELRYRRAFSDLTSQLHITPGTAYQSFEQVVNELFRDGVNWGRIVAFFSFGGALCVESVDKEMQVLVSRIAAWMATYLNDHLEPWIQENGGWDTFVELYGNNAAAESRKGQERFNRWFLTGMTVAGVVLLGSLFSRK

- Kd: 92 nM
Substance: Bcl-xL (from UniProt Q07817)
